Reference: patent publication EP2784083A1 (Charité - Universitätsmedizin Berlin, dated 2014)

T1: murine Acvr1 c (murine, UniProt Q8K348 26-493)
T1 sequence (looked up): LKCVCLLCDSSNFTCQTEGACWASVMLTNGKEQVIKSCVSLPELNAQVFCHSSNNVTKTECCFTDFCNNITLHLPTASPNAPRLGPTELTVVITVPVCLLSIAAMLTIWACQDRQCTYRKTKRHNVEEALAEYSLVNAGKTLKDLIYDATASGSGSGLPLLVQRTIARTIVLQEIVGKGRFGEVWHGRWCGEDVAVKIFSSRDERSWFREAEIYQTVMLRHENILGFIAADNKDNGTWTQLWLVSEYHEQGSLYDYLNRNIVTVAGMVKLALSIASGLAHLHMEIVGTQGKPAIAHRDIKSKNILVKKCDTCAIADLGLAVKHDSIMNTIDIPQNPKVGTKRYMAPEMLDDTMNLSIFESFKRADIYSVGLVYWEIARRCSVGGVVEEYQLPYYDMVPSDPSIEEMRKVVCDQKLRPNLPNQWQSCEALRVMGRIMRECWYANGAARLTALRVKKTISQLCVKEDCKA

T2: murine Acvrl1 (murine, UniProt Q61288 23-502)
T2 sequence (looked up): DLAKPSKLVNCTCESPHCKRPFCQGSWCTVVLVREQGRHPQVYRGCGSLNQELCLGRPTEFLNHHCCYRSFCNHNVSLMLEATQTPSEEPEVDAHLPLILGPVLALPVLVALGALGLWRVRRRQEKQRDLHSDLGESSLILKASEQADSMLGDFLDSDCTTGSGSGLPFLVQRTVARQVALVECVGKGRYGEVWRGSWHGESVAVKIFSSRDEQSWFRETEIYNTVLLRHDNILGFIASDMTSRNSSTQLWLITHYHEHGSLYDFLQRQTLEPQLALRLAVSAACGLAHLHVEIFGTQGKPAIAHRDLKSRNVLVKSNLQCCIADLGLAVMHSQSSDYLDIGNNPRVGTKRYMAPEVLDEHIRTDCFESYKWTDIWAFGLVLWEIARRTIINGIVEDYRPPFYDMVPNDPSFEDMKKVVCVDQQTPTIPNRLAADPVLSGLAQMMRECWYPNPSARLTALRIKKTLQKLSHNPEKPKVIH

T3: murine Acvr1 (murine, UniProt P37172 21-509)
T3 sequence (looked up): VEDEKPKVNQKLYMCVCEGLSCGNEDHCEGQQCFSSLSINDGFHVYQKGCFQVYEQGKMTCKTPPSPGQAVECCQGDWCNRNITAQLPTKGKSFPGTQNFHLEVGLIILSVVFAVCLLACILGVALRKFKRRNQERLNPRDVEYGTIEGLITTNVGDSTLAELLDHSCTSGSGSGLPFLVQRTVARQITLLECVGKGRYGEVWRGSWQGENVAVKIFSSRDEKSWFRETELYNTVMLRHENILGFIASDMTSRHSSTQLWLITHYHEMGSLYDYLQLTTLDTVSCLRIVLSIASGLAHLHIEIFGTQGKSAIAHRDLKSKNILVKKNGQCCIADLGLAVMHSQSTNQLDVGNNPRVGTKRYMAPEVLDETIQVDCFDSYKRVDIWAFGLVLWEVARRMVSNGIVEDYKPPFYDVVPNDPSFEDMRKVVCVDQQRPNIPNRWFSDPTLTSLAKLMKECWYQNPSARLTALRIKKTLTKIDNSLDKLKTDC

T4: murine Actr1 b (murine, UniProt Q61271 24-505)
T4 sequence (looked up): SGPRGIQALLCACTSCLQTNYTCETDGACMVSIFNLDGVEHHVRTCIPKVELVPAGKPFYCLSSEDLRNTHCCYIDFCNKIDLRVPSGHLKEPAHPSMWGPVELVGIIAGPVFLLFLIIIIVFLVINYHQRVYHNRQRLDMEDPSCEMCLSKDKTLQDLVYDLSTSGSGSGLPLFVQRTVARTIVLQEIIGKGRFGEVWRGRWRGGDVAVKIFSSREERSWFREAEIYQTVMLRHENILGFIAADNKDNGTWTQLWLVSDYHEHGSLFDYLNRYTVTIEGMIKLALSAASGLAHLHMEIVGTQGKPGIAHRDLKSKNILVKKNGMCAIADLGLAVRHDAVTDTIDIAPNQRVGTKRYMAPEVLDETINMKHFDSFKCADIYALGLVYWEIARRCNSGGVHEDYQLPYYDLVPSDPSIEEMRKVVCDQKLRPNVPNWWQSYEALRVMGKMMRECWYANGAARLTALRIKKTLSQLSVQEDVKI

T5: murine Tβr1 (murine, UniProt Q64729 30-503)
T5 sequence (looked up): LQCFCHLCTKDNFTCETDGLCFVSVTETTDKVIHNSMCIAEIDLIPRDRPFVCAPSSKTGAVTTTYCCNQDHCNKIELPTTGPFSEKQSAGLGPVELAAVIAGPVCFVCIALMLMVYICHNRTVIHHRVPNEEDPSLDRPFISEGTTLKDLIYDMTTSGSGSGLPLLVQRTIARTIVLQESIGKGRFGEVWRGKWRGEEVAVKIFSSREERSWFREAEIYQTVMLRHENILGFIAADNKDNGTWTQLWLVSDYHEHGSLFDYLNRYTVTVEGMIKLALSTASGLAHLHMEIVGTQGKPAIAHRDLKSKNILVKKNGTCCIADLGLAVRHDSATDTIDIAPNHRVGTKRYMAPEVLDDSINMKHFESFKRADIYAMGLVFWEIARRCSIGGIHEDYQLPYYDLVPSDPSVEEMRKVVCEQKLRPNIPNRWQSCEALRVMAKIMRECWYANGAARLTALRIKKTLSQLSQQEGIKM

T6: murine Bmpr2 (murine, UniProt O35607 27-1038)
T6 sequence (looked up): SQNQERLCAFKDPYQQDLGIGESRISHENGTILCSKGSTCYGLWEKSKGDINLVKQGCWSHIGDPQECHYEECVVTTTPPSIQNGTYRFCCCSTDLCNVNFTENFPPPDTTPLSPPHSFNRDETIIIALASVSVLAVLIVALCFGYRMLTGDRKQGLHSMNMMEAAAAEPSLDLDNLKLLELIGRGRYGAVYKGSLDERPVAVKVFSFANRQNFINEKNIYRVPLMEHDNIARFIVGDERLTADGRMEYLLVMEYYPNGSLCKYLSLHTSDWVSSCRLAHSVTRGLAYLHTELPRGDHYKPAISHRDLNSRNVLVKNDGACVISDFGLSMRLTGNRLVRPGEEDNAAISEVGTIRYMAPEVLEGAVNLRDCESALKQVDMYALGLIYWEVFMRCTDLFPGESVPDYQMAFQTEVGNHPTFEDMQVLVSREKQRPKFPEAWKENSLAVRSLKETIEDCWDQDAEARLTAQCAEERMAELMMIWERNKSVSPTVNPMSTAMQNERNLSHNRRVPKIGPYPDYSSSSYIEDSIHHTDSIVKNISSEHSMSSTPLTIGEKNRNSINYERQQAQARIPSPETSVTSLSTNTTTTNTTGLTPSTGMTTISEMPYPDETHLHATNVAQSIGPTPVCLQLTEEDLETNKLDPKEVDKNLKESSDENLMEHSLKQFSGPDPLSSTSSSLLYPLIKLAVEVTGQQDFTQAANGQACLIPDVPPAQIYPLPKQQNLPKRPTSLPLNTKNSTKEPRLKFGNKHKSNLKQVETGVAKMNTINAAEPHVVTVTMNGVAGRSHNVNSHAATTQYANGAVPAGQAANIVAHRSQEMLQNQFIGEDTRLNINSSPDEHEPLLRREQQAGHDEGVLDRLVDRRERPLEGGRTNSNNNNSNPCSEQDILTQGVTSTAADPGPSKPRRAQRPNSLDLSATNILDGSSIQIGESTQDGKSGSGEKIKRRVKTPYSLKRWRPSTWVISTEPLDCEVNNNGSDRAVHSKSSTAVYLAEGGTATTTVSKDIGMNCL


Assays:
Experiment in all cases: cell-based or functional assay
[1] = biological target: hBMP2(N341 V-N384W) (human) (UniProt P12643)
[2] = biological target: wildtype human BMP2 (human) (UniProt P12643)
[3] = biological target: T1, murine Acvr1 c
[4] = biological target: T2, murine Acvrl1
[5] = biological target: T3, murine Acvr1
[6] = biological target: T4, murine Actr1 b
[7] = biological target: T5, murine Tβr1
[8] = biological target: murine Bmpr1b (murine, UniProt P36898 14-502)
[9] = biological target: murine Acvr2a (murine, UniProt P27038 20-513)
[10] = biological target: murine Acvr2b (murine, UniProt P27040 19-536)
[11] = biological target: T6, murine Bmpr2
[12] = biological target: murine Bmpr1a (murine, UniProt P36895 24-532)
Chain of murine Bmpr1a (P36895 24-532): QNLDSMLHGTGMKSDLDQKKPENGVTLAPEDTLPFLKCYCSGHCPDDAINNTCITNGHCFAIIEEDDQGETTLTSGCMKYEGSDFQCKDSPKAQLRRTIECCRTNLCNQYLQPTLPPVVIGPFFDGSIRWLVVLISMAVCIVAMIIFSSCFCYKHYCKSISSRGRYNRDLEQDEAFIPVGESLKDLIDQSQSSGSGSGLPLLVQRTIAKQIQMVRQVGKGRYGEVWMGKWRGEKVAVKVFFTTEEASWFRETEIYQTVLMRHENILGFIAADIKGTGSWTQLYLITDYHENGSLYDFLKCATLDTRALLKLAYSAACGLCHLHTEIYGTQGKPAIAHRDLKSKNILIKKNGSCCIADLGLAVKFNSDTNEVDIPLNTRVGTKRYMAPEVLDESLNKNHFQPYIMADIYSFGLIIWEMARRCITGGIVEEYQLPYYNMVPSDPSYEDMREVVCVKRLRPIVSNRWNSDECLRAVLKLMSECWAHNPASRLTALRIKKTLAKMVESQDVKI

Chain of murine Acvr2a (P27038 20-513): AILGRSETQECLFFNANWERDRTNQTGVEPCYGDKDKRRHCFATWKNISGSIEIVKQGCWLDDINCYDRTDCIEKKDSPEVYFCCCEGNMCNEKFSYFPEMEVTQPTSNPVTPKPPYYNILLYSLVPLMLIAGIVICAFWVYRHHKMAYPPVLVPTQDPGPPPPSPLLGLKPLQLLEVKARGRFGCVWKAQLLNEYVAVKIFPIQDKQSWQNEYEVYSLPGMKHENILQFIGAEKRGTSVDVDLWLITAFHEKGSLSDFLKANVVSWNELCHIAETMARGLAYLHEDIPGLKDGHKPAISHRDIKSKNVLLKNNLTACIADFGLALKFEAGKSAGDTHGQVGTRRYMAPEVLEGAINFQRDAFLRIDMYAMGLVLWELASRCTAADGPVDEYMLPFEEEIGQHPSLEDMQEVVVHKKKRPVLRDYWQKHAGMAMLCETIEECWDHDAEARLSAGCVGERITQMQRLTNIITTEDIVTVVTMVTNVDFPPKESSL
Chain of murine Bmpr1b (P36898 14-502): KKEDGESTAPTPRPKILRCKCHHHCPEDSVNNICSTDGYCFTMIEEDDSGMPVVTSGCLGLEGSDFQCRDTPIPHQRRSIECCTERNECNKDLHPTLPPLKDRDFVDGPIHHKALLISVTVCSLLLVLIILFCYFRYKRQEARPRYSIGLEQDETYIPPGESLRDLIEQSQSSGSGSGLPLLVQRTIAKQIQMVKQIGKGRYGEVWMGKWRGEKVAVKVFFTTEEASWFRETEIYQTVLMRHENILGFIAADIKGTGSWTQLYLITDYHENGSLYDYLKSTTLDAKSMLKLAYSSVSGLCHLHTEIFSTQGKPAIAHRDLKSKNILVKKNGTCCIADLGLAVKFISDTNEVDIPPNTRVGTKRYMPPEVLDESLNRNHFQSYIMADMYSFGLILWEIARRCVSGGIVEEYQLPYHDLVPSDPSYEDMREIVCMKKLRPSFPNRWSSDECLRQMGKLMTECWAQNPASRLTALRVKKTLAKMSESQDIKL
Chain of murine Acvr2b (P27040 19-536): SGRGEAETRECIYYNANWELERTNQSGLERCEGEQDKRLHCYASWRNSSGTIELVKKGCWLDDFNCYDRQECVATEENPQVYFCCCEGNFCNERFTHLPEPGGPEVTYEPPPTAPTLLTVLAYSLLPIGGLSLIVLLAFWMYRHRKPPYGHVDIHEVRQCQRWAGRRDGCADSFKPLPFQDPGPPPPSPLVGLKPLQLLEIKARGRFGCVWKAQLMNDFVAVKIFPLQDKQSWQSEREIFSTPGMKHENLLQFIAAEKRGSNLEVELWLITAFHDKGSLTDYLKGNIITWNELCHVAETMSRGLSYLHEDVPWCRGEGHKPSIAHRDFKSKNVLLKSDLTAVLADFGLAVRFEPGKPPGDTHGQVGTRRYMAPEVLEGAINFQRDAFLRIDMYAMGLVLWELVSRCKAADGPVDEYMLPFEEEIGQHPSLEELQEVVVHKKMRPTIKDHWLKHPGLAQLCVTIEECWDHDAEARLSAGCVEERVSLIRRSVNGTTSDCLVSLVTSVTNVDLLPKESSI

NOG DNA surplus that blocks SBE reporter activation to control levels, NIH3T3 cells (fold surplus of transfected NOG-DNA) [1]	rel. luciferase activity (SBE reporter, NIH3T3 cells) at 5x surplus of co-transfected NOG DNA (rel. luciferase activity) [1]	rel. luciferase activity (SBE reporter, NIH3T3 cells) at 50x surplus of co-transfected NOG DNA (rel. luciferase activity) [1]	chondrogenic potential in chicken micromass culture (Alcian blue), NOG co-expressed ([1]; scale: % of the wild-type activity in the absence of its antagonist)	rel. luciferase activity (SBE reporter, NIH3T3 cells) at 5x surplus of co-transfected NOG DNA (rel. luciferase activity) [2]	rel. luciferase activity (SBE reporter, NIH3T3 cells) at 50x surplus of co-transfected NOG DNA (rel. luciferase activity) [2]	rel. luciferase activity (SBE reporter, COS-1 cells) [3]	rel. luciferase activity (SBE reporter, COS-1 cells) [4]	rel. luciferase activity (SBE reporter, COS-1 cells) [5]	rel. luciferase activity (SBE reporter, COS-1 cells) [6]	rel. luciferase activity (SBE reporter, COS-1 cells) [7]	rel. luciferase activity (SBE reporter, COS-1 cells) [8]	rel. luciferase activity (SBE reporter, COS-1 cells) [9]	rel. luciferase activity (SBE reporter, COS-1 cells) [10]	rel. luciferase activity (SBE reporter, COS-1 cells) [11]	rel. luciferase activity (SBE reporter, COS-1 cells) [12]	Molecule
500	9.31	7.11	> 100	1.53	1.51											human NOG (Noggin) (from UniProt Q13253 28-232)
						2.06 rel. luciferase activity	6.41 rel. luciferase activity	1.63 rel. luciferase activity	2.81 rel. luciferase activity	2.44 rel. luciferase activity	37.5 rel. luciferase activity	57.4 rel. luciferase activity	171 rel. luciferase activity	268 rel. luciferase activity		wildtype human BMP2 (ligand) QAKHKQRKRLKSSCKRHPLYVDFSDVGWNDWIVAPPGYHAFYCHGECPFPLADHLNSTNHAIVQTLVNSVNSKIPKACCVPTELSAISMLYLDENEKVVLKNYQDMVVEGCGCR
						2.75 rel. luciferase activity	7.57 rel. luciferase activity	1.23 rel. luciferase activity	3.4 rel. luciferase activity	2.52 rel. luciferase activity	28.8 rel. luciferase activity	46.7 rel. luciferase activity	156 rel. luciferase activity	262 rel. luciferase activity	24.6 rel. luciferase activity	hBMP2(N341 V-N384W) (ligand) QAKHKQRKRLKSSCKRHPLYVDFSDVGWNDWIVAPPGYHAFYCHGECPFPLADHLNSTVHAIVQTLVNSVNSKIPKACCVPTELSAISMLYLDENEKVVLKWYQDMVVEGCGCR
